From publication PMC5299047 (Structure (London, England : 1993), 2017)

Biological target: the molecule itself
Assay: SAXS

B1: Saccharomyces cerevisiae Rnt1p (intact protein) (enzyme, UniProt Q02555 1-471, looked up)
chain: MGSKVAGKKKTQNDNKLDNENGSQQRENINTKTLLKGNLKISNYKYLEVIQLEHAVTKLVESYNKIIELSPNLVAYNEAVNNQDRVPVQILPSLSRYQLKLAAELKTLHDLKKDAILTEITDYENEFDTEQKQPILQEISKADMEKLEKLEQVKREKREKIDVNVYENLNEKEDEEEDEGEDSYDPTKAGDIVKATKWPPKLPEIQDLAIRARVFIHKSTIKDKVYLSGSEMINAHNERLEFLGDSILNSVMTLIIYNKFPDYSEGQLSTLRMNLVSNEQIKQWSIMYNFHEKLKTNFDLKDENSNFQNGKLKLYADVFEAYIGGLMEDDPRNNLPKIRKWLRKLAKPVIEEATRNQVALEKTDKLDMNAKRQLYSLIGYASLRLHYVTVKKPTAVDPNSIVECRVGDGTVLGTGVGRNIKIAGIRAAENALRDKKMLDFYAKQRAAIPRSESVLKDPSQKNKKRKFSDTS
  stoichiometry N: 2
